Here are results for three substances from publication doi:10.1101/2020.04.11.036434.

The assay concerns the target PTEN (WT), recombinant insect-cell purified (UniProt P60484). Put plainly: SPR.
On to “P-Rex2 (674-683) P-Rex1 sequence-swap mutant”, for which the fold decrease in affinity against P-Rex2 (WT) was 4 fold.
Turning to “P-Rex2 (904-912) P-Rex1 sequence-swap mutant”, the fold decrease in affinity against P-Rex2 (WT) was 7 fold.
For “P-Rex2 (922-931) P-Rex1 sequence-swap mutant”, the fold decrease in affinity against P-Rex2 (WT) amounted to 6 fold.
